Results on one substance are retold here after US11939390B2, “Methods of treating multiple myeloma” (Sanofi-Aventis U.S. LLC, priority 2019, dated 2024).

For series [1], the system named is anti-isatuximab antibodies. Nature of the series: Immunogenicity: antidrug antibodies (ADA). To be noted: in vivo. The arrangement: species or system human. The procedure: The presence of antidrug antibodies (ADA, i.e., anti-isatuximab antibodies) in patients in the IPd arm were assessed throughout the study.
Series [2] in a line: Population pharmacokinetics of isatuximab. The format is in vivo, human. The following applies: patients with renal impairment vs those without. From the text: Blood samples were collected from all patients treated with […] to assess the pharmacokinetic profile of isatuximab using population pharmacokinetic approach.

For the substance “isatuximab: anti-CD38 antibody, CAS Registry Number 1461640-62-9; heavy chain SEQ ID NO: 10, light chain SEQ ID NO: 11”, the “anti-drug antibodies (ADA)” value in series [1] was “No positive ADA”. In addition, the Pharmacokinetic parameters result in series [2] is “comparable between patients with renal impairment and those without”.
